# How the values were obtained:
# Grb2 SH2 = Grb2 SH2 (UniProt P62993); test: SH2 binding enrichment of the phosphorylated peptide, bacterial display (enrichment ratio); higher = better substrate or ligand; peptides without Tyr show the background
# c-Src SH2 = test: as above
# SHP2-C SH2 = test: as above
# MERTK = MERTK (UniProt Q12866); test: phosphorylation enrichment, bacterial display (enrichment ratio); higher = better substrate or ligand; peptides without Tyr show the background
# Fer (mouse) = test: as above
# Fes = Fes (UniProt P07332); test: as above
# Jak2 = Jak2 (UniProt O60674); test: as above
# EPHB1 = EPHB1 (UniProt P54762); test: as above
# EPHB2 = EPHB2 (UniProt P29323); test: as above
# Fyn = Fyn (UniProt P06241); test: as above
# FGFR3 = FGFR3 (UniProt P22607); test: as above
# c-Src = test: as above
# c-Abl (mouse) = test: as above
# FGFR1 = FGFR1 (UniProt P11362); test: as above
# AncSZ = test: as above
# Hck = Hck (UniProt P08631); test: as above
# 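Wherever SH2 binding enrichment of the phosphorylated peptide, bacterial display is given: peptide library displayed on the E. coli surface as eCPX fusions, selected cells deep-sequenced, score is each peptide's frequency after selection divided by its frequency in the input.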
# 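Wherever phosphorylation enrichment, bacterial display is given: 11-residue human phosphosite peptides and single-mutation variants displayed on the E. coli surface, counted by deep sequencing, each peptide's frequency after selection divided by its frequency in the unselected input library; frequency after pTyr selection over input frequency; kinase dosed for 20-30% of maximal phosphorylation in three min.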
# Chain of MERTK (Q12866 whole entry, looked up): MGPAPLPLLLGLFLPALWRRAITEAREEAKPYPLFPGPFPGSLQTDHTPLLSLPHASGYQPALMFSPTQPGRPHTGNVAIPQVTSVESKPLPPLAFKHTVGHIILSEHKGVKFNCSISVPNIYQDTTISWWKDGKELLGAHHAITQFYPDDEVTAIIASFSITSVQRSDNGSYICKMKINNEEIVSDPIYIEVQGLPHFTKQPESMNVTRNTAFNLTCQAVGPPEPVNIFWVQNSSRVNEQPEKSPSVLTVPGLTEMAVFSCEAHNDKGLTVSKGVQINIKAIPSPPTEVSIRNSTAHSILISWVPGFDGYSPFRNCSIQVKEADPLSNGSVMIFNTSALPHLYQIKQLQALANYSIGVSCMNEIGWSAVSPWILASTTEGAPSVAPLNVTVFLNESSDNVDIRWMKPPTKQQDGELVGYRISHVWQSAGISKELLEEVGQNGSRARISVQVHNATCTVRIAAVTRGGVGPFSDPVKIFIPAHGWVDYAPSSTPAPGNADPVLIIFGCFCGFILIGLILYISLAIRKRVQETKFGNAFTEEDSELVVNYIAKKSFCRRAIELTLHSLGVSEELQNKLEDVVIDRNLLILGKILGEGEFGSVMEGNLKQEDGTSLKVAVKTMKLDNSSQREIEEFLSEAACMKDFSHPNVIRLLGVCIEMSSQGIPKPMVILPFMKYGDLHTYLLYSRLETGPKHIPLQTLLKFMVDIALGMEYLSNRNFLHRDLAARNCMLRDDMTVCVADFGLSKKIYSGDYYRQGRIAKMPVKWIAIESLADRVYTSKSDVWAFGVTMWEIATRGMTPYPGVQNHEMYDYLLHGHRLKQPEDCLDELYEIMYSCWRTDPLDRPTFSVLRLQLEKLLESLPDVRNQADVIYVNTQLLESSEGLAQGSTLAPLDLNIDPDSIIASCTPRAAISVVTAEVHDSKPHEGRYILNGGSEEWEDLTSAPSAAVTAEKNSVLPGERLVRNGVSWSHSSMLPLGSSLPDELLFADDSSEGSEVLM
# Chain of Jak2 (O60674 whole entry, looked up): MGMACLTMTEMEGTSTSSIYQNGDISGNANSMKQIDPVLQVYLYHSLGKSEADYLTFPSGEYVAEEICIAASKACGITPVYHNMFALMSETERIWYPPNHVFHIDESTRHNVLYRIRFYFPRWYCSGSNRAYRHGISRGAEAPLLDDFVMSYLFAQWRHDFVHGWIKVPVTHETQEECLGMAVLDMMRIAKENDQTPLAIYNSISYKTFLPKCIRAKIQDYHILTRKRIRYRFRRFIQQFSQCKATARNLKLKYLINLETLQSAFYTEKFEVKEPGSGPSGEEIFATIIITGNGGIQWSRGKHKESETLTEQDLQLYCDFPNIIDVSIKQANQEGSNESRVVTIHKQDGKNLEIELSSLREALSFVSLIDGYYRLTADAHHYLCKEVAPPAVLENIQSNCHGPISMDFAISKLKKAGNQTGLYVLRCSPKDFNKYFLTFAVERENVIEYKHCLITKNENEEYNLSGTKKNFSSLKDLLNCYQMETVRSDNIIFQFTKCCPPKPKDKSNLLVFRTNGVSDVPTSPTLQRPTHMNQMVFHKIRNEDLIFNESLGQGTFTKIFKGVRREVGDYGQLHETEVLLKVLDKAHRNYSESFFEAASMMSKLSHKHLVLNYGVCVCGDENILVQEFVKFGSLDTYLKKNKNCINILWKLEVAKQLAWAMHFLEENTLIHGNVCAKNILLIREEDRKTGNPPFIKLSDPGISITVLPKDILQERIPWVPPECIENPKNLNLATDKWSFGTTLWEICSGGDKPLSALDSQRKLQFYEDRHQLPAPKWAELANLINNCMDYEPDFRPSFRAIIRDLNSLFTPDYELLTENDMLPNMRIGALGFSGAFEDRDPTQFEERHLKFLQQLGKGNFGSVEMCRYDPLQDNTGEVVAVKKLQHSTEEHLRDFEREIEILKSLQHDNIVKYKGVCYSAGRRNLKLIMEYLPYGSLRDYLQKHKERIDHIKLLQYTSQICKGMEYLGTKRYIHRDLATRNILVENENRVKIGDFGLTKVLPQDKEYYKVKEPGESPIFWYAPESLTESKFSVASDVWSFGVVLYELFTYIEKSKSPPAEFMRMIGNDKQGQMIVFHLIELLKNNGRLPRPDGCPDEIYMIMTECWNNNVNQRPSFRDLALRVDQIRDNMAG
# Chain of Fes (P07332 whole entry, looked up): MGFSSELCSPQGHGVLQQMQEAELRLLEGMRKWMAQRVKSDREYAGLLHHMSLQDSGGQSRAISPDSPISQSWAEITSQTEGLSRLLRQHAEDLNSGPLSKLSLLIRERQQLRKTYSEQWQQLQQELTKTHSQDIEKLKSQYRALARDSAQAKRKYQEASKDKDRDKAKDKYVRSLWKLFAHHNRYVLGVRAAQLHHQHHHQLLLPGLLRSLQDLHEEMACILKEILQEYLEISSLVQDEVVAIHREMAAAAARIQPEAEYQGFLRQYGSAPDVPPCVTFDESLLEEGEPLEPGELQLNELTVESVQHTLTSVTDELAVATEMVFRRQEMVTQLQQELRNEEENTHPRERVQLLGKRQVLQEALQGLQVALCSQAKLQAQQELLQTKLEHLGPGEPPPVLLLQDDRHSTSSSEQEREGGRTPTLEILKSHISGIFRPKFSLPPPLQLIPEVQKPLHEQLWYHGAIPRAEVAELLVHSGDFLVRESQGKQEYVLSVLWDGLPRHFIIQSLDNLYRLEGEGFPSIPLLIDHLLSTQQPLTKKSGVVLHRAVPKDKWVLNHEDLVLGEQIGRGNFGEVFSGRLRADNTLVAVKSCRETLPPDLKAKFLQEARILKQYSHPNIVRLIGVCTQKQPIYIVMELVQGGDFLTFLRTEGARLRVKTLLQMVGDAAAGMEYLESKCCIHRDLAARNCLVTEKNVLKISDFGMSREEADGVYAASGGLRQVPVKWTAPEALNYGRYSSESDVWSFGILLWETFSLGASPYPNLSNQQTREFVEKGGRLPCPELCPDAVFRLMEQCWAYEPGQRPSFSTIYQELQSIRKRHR
# Chain of EPHB2 (P29323 whole entry, looked up): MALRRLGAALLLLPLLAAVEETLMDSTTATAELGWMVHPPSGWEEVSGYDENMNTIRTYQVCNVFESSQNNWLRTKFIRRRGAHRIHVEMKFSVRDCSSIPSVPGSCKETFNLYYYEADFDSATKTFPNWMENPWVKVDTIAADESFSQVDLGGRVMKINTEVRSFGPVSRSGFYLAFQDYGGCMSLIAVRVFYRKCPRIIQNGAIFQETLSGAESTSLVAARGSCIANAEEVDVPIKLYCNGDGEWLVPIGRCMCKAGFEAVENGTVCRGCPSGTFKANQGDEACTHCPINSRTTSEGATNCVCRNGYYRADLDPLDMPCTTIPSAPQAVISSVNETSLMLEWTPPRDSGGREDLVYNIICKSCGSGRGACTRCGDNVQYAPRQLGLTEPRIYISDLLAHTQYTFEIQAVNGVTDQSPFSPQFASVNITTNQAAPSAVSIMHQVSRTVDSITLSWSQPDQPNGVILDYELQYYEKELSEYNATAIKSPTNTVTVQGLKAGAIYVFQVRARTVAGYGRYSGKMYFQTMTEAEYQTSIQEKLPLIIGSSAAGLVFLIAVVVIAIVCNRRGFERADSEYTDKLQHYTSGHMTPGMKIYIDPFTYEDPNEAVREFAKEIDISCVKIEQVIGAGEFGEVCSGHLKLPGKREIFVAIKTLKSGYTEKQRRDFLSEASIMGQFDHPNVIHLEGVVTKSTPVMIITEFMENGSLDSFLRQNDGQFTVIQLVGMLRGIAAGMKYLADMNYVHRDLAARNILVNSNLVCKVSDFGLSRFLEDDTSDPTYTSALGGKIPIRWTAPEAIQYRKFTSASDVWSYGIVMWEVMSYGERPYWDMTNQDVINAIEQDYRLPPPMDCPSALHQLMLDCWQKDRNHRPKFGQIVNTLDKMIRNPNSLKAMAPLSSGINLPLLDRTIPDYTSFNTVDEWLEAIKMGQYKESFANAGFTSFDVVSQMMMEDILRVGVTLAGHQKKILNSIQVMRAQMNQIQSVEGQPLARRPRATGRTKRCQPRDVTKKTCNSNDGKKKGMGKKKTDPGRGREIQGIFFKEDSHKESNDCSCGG
# Chain of FGFR1 (P11362 whole entry, looked up): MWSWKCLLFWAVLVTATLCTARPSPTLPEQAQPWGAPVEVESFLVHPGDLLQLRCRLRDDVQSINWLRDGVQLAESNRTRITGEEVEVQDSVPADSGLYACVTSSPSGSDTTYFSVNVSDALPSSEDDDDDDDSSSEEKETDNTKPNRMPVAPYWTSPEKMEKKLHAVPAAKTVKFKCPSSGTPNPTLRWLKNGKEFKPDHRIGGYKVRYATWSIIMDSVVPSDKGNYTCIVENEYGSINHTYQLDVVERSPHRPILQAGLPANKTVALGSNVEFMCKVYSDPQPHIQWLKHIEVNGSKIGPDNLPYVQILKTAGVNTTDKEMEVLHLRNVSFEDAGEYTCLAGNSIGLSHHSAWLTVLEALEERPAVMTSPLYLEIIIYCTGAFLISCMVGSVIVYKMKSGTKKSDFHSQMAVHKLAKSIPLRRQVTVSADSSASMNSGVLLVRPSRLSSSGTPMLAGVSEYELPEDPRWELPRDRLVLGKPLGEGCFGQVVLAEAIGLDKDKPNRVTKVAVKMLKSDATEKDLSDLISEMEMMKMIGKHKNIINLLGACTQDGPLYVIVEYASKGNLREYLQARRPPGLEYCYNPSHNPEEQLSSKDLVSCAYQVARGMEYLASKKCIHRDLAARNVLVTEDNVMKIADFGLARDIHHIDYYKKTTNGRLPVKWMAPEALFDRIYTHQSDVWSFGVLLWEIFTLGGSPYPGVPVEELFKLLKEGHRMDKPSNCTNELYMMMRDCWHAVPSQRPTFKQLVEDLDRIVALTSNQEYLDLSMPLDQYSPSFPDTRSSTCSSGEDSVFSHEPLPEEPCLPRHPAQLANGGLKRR
Sequence,SH2 binding enrichment (Grb2 SH2),SH2 binding enrichment (c-Src SH2),SH2 binding enrichment (SHP2-C SH2),phosphorylation enrichment (MERTK),phosphorylation enrichment (Fer (mouse)),phosphorylation enrichment (Fes),phosphorylation enrichment (Jak2),phosphorylation enrichment (EPHB1),phosphorylation enrichment (EPHB2),phosphorylation enrichment (Fyn),phosphorylation enrichment (FGFR3),phosphorylation enrichment (c-Src),phosphorylation enrichment (c-Abl (mouse)),phosphorylation enrichment (FGFR1),phosphorylation enrichment (AncSZ),phosphorylation enrichment (Hck)
HNGVSYFINLC [IGF2R_Y2024_YF],0.755,0.439,0.573,0.613,0.587,2.08,2.2,1.17,0.822,0.659,0.997,0.668,1.24,0.783,1.57,0.618
YADPYYDYEIE [ZC3H18_Y372],0.787,2.04,0.545,2.18,1.58,1.31,1.24,2.05,1.94,2.52,7.39,3.01,0.853,9.62,1.95,1.06
SDVCMYRKNTF [SYNE2_Y570_I574T_YF],0.787,0.507,0.732,0.4,0.382,0.904,0.726,0.551,0.534,0.395,0.571,0.4,0.636,0.497,0.711,0.456
DGQVNYEEFVQ [CALM1_Y139],0.784,0.399,0.493,0.487,0.659,1.42,1.2,1.62,1.28,0.505,0.841,0.576,0.957,0.608,1.33,0.626
KIIATYRLCSE [DNAH3_Y1586_V1583I],0.74,0.574,0.611,0.354,0.477,0.951,0.808,0.596,0.51,0.407,0.678,0.421,0.693,0.431,0.887,0.462
FFRNVYHLASV [RBL1_Y796_K794N_YF],0.563,1.79,0.629,0.404,0.403,0.763,0.575,0.509,0.515,1.25,0.532,0.862,0.51,0.486,0.803,0.596
GSCQEYTGAPF [NAXD_Y85_G81S_YF],0.946,0.596,0.822,0.424,0.466,1.04,0.98,0.628,0.496,0.422,0.798,0.564,0.638,0.536,1.16,0.509
FMGVEYSSCDT [EPHA3_Y937_T933M],0.598,1.43,0.588,0.479,0.64,1.31,1.2,0.683,0.756,0.441,0.838,0.521,0.827,0.601,1.32,0.61
ETKKQYDSFTY [TMED3_Y85],0.772,1,0.714,0.524,0.542,0.828,0.656,0.397,0.493,0.531,0.581,0.604,0.639,0.5,0.735,0.54
TKDTFYKQRMF [GBA_Y451_P454R],0.83,0.396,0.68,0.372,0.416,0.579,0.404,0.359,0.406,0.344,0.391,0.351,0.458,0.41,0.56,0.339
PTTKTYLPHFD [HBA1_Y43_F44L],0.901,0.483,0.756,0.494,0.386,0.77,0.456,0.362,0.489,0.622,0.58,0.458,0.307,0.508,0.839,0.389
GVIRHYVVCST [BTK_Y334],0.819,0.495,0.529,0.447,0.566,1.25,1.12,0.68,0.712,0.535,0.813,0.444,0.87,0.555,1.13,0.536
RLLRGYDQSAY [HLA-C_Y137],0.858,0.645,0.83,0.36,0.52,0.826,0.576,0.569,0.465,0.465,0.593,0.416,0.468,0.394,0.57,0.527
PTTKTYFRHFD [HBA1_Y43_P45R],0.964,0.457,1.08,0.466,0.312,0.998,0.959,0.546,0.409,0.393,0.66,0.545,0.667,0.65,0.556,0.539
LLKKIYLMLDN [STAT1_Y203_M202I],0.899,0.896,1.1,0.822,0.67,2.38,2.05,1.15,0.817,0.562,1.31,0.977,1.85,1.08,1.85,0.85
DYYDLYGGEKK [PTPN11_Y66_F71K],1.01,0.838,0.665,2.72,0.888,1.17,2.36,6.24,4.52,4.04,14.1,3.65,0.945,15.8,2.84,4.06
LTGIAYGLPHW [SLC22A14_Y291_S292G],0.89,0.768,1.23,0.508,0.424,1.25,0.924,0.56,0.558,0.578,0.618,0.574,0.705,0.523,1.16,0.631
HKLSSYEYDFE [BTK_Y40_Y39S],0.69,1.33,0.411,0.911,1.03,1.51,1.38,0.822,0.789,0.72,1.04,1.43,0.966,0.952,1.84,0.952

# The next lines start with results.
SH2 binding enrichment (Grb2 SH2),SH2 binding enrichment (c-Src SH2),SH2 binding enrichment (SHP2-C SH2),Sequence,phosphorylation enrichment (MERTK),phosphorylation enrichment (Fer (mouse)),phosphorylation enrichment (Fes),phosphorylation enrichment (Jak2),phosphorylation enrichment (EPHB1),phosphorylation enrichment (EPHB2),phosphorylation enrichment (Fyn),phosphorylation enrichment (FGFR3),phosphorylation enrichment (c-Src),phosphorylation enrichment (c-Abl (mouse)),phosphorylation enrichment (FGFR1),phosphorylation enrichment (AncSZ),phosphorylation enrichment (Hck)
0.786,0.501,0.594,FSGDFYRIQGR [DDR2_Y741_YF],0.421,0.393,0.817,0.944,0.543,0.439,0.488,0.594,0.551,0.578,0.509,0.723,0.449
0.775,1.28,0.576,KKMEVYQSIAD [MYBPC3_Y548_L545M],0.451,0.508,1.04,1.04,0.745,0.627,0.943,0.681,0.91,0.764,0.719,0.927,1.47
1.06,0.635,0.815,TLLPDYEDEEE [ZNF830_Y159_S154T],0.546,0.788,1.28,1.1,0.925,0.962,0.605,0.938,0.62,0.846,0.683,1.64,0.709
2.07,1.79,1.84,KKHIPYRQHKS [CSNK1G2_Y206_E208Q],1.07,2.37,3.45,4.52,2.12,1.36,1.08,3.67,1.34,3.26,1.28,2.09,1.56
1.26,2.15,0.954,RLLRGYDQYAY [HLA-B_Y137_H137Y],0.596,0.476,0.924,0.844,0.636,0.821,0.518,0.508,0.738,0.659,0.548,0.865,0.575
0.992,3.95,1.12,FNNPAYYVLEG [INPPL1_Y986],7.95,0.485,0.958,4.76,0.851,0.704,1.75,9.49,2.06,0.767,12.1,1.2,1.11
0.859,0.866,0.682,VPLATYMQIFK [RPL21_Y30_R32Q_YF],0.613,0.308,0.654,0.836,1.83,0.648,0.887,0.54,1.54,0.361,0.471,0.745,1.8
0.917,0.655,0.71,DPHQQYFIAMD [TBX15_Y159_YF],0.511,0.396,1.1,1.06,0.504,0.577,0.551,1.19,0.637,0.792,1.02,0.93,0.544
0.889,0.953,1.66,RRNTYYASIAK [ACADM_Y353],1.13,0.611,0.889,1.12,0.702,0.541,0.762,0.76,0.81,0.939,0.536,0.902,0.853
1.17,0.578,0.623,IDNKMYDPKMN [ENPP1_Y280],0.304,0.355,0.729,0.385,0.369,0.362,0.404,0.471,0.344,0.41,0.553,0.699,0.478
0.985,0.801,0.692,NTVDYYDLYGG [PTPN11_Y63_G60V],1.35,1.19,1.21,1.47,4.4,3.7,6.7,13.1,4.25,0.788,15.3,2.56,5.68
1.66,1.33,1.99,LLVVLCKYRCY [PSEN1_Y154_Y154C],0.315,0.353,1.01,0.786,0.532,0.466,0.377,0.536,0.369,0.606,0.414,0.873,0.382
0.817,0.558,0.756,KEDSAYGSQSV [NFKB2_Y868],0.454,0.409,1.07,1.11,0.502,0.521,0.535,0.584,0.502,0.911,0.428,0.978,0.583
0.905,1.21,0.829,QGQHWYSSSDK [CASP10_Y9],0.573,0.579,1.17,0.645,0.766,0.596,0.671,0.6,0.552,0.697,0.665,0.826,0.754
0.762,0.473,0.602,LEIETYRRLLD [KRT12_Y429],0.367,0.471,1.03,1.01,0.616,0.549,0.468,0.627,0.369,0.656,0.45,0.854,0.497
